# Assay results from article PMC7564666 (2020).
# B1: GST-LASP1 (full length LIM and SH3 Protein 1, residues 1–261) [human] / argonaute 2 (Ago2), endogenous [human (endogenous in MDA-MB-231 variants 231S and Bone-Un)] (parent complex)
# chain 1: MNPNCARCGKIVYPTEKVNCLDKFWHKACFHCETCKMTLNMKNYKGYEKKPYCNAHYPKQSFTMVADTPENLRLKQQSELQSQVRYKEEFEKNKGKGFSVVADTPELQRIKKTQDQISNIKYHEEFEKSRMGPSGGEGMEPERRDSQDGSSYRRPLEQQQPHHIPTSAPVYQQPQQQPVAQSYGGYKEPAAPVSIQRSAPGGGGKRYRAVYDYSAADEDEVSFQDGDTIVNVQQIDDGWMYGTVERTGDTGMLPANYVEAI
# chain 2: not shown
# Variants of: B1
# Test: GST pull-down with purified proteins (direct binding), immunoblot; 100 ng of purified recombinant Ago2; 1.5 nmol of purified LASP1 double mutants; high exposure blot; parent: 1
row,ratio to parent,Variant
1,0.34,"chain 1 S146D, chain 1 Y171F"
2,0.58,"chain 1 S146D, chain 1 Y171D"

# Variants of: B1
# Test: GST pull-down, immunoblot; 1 mg of Bone-Un LASP1-KO total lysate; 1.5 nmol of each of the double-mutants; parent: 1
row,ratio to parent,Variant
1,0.9,"chain 1 S146D, chain 1 Y171D"
2,1.82,"chain 1 S146A, chain 1 Y171D"
3,1.29,"chain 1 S146A, chain 1 Y171F"

# Variants of: B1
# Test: GST pull-down, immunoblot; 1 mg of Bone-Un LASP1 KO total lysate; 1.5 nmol of each LASP1 single-mutant protein; parent: 1
row,ratio to parent,Variant
1,4.79,chain 1 S146A
2,3.23,chain 1 S146D
3,5,chain 1 Y171D
4,0.27,chain 1 Y171F

# Variants of: B1
# Test: GST pull-down with purified proteins (direct binding), immunoblot; 100 ng of purified recombinant Ago2; 1.5 nmol of each purified single-mutant protein; high exposure blot; parent: 1
row,ratio to parent,Variant
1,0.39,chain 1 S146D
2,0.61,chain 1 Y171D
3,0.08,chain 1 Y171F

# Variants of: B1
# Test: GST pull-down with purified proteins (direct binding), immunoblot; 100 ng of purified recombinant Ago2; 1.5 nmol of purified LASP1 double mutants; low exposure blot; parent: 1
row,ratio to parent,Variant
1,3.98,"chain 1 S146A, chain 1 Y171D"
2,1.6,"chain 1 S146A, chain 1 Y171F"
